Measurements published in article PMC3688974.

Molecular target: HLA-A*02 molecules at the surface of T1 cells (human (endogenous in T1 cells))
Experiment: flow cytometry on cells; T1 cells pulsed with 20 µM NY_(157-165) peptide (three pulses, stability control; or freshly for 2 h, day control); HLA-A*02/NY_(157-165) complexes detected with a complex-specific F(ab) and a PE-conjugated second antibody 24, 48 and 96 h after the last loading

NY-ESO-1_(157-165) peptide (from UniProt P78358 157-165)
percent of the complexes of freshly peptide-pulsed T1 cells still detected: 64%
